Test [1] addresses T1, carcinoembryonic antigen (CEA) (UniProt P06731 35-685, limits assumed, biotinylated (labelled form); unlabelled CEA (Calbiochem) used as competitor in the off-rate assays).
T1 construct: also called biotinylated-CEA; bio-CEA
T1 sequence (looked up): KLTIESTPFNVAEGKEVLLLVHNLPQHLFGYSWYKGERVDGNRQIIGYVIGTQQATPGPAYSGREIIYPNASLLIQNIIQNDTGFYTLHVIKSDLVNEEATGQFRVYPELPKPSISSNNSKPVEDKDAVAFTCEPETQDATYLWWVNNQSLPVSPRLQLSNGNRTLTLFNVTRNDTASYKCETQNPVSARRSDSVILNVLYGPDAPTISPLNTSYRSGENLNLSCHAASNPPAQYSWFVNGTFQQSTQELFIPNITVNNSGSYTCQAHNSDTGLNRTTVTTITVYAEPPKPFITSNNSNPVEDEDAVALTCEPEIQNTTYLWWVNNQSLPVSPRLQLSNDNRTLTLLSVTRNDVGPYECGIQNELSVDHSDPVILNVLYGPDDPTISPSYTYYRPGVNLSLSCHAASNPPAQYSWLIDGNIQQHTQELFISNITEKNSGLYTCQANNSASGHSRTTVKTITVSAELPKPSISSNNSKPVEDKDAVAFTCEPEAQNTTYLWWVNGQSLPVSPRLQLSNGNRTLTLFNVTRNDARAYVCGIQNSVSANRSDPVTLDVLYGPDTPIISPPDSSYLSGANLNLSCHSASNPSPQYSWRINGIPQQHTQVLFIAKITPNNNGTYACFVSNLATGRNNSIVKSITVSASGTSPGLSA
Briefly: yeast surface display, equilibrium titration with biotinylated CEA, flow cytometry. (Flow cytometry measures light scatter and fluorescence of single cells or particles in a stream.)

Test [2] has as its target T1, carcinoembryonic antigen (CEA). In words: yeast surface display, off-rate analysis with biotinylated CEA and excess unlabelled CEA, flow cytometry.

The source of these data is patent US20050147614A1 (CANCER RESEARCH TECHNOLOGY, published 2005).

B1: sm3E (scFv)
scFv: PYDVPDYALQASGGGGSGGGGSGGGGSASQVKLEQSGAEVVKPGASVKLSCKASGFNIKDSYMHWLRQGPGQRLEWIGWIDPENGDTEYAPKFQGKATFTTDTSANTAYLGLSSLRPEDTAVYYCNEGTPTGPYYFDYWGQGTLVTVSSGGGGSGGGGSGGGGSENVLTQSPSSMSVSVGDRVTIACSASSSVPYMHWLQQKPGKSPKLLIYLTSNLASGVPSRFSGSGSGTDYSLTISSVQPEDAATYYCQQRSSYPLTFGGGTKLEIKAAAGSEQKLISEEDL
notes: also called stabilized m3E
On to B1, for which the affinity in test [1], expressed as Kd, was 0.03 nM. The koff (in general, the first-order rate constant of dissociation) in test [2] stood at 1.2e-06 s⁻¹.
